Literature values as cited in publication PMC8298264, “Function of cofactor Akirin2 in the regulation of gene expression in model human neutrophil-like HL60 cells” (Bioscience Reports, 2021).

System: AKR2
Design: key: A: Very high confidence in the interaction; B: High confidence in the interaction; D: Moderate confidence in the interaction
Conditions: AKR2-interacting proteins (IPs), physical interactome; ref https://doi.org/10.3390/vaccines8010077; cited from earlier work
From the text: Supplement BSR-2021-1120_supp1.zip/BSR-2021-1120_suppST4.xlsx, sheet "BPs related to AKR2-IPs" | column: Predicted Biological Score (PBS)

Molecule	Predicted Biological Score (PBS)
RNF181 (protein, UniProt Q9P0P0 1-153, looked up) E3 ubiquitin-protein ligase …: MASYFDEHDCEPSDPEQETRTNMLLELARSLFNRMDFEDLGLVVDWDHHLPPPAAKTVVENLPRTVIRGSQAELKCPVCLLEFEEEETAIEMPCHHLFHSSCILPWLSKTNSCPLCRYELPTDDDTYEEHRRDKARKQQQQHRLENLHGAMYT	A
TOMM34 (protein, UniProt Q15785 1-309, looked up) Mitochondrial import receptor …: MAPKFPDSVEELRAAGNESFRNGQYAEASALYGRALRVLQAQGSSDPEEESVLYSNRAACHLKDGNCRDCIKDCTSALALVPFSIKPLLRRASAYEALEKYPMAYVDYKTVLQIDDNVTSAVEGINRMTRALMDSLGPEWRLKLPSIPLVPVSAQKRWNSLPSENHKEMAKSKSKETTATKNRVPSAGDVEKARVLKEEGNELVKKGNHKKAIEKYSESLLCSNLESATYSNRALCYLVLKQYTEAVKDCTEALKLDGKNVKAFYRRAQAHKALKDYKSSFADISNLLQIEPRNGPAQKLRQEVKQNLH	A
TNIP2 (protein, UniProt Q8NFZ5 1-429, looked up) TNFAIP3-interacting protein 2: MSRDPGSGGWEEAPRAAAALCTLYHEAGQRLRRLQDQLAARDALIARLRARLAALEGDAAPSLVDALLEQVARFREQLRRQEGGAAEAQMRQEIERLTERLEEKEREMQQLLSQPQHEREKEVVLLRRSMAEGERARAASDVLCRSLANETHQLRRTLTATAHMCQHLAKCLDERQHAQRNVGERSPDQSEHTDGHTSVQSVIEKLQEENRLLKQKVTHVEDLNAKWQRYNASRDEYVRGLHAQLRGLQIPHEPELMRKEISRLNRQLEEKINDCAEVKQELAASRTARDAALERVQMLEQQILAYKDDFMSERADRERAQSRIQELEEKVASLLHQVSWRQDSREPDAGRIHAGSKTAKYLAADALELMVPGGWRPGTGSQQPEPPAEGGHPGAAQRGQGDLQCPHCLQCFSDEQGEELLRHVAECCQ	A
SORBS3 (protein, UniProt O60504 1-671, looked up) Vinexin: MQGPPRSLRAGLSLDDFIPGHLQSHIGSSSRGTRVPVIRNGGSNTLNFQFHDPAPRTVCNGGYTPRRDASQHPDPAWYQTWPGPGSKPSASTKIPASQHTQNWSATWTKDSKRRDKRWVKYEGIGPVDESGMPIAPRSSVDRPRDWYRRMFQQIHRKMPDLQLDWTFEEPPRDPRHLGAQQRPAHRPGPATSSSGRSWDHSEELPRSTFNYRPGAFSTVLQPSNQVLRRREKVDNVWTEESWNQFLQELETGQRPKKPLVDDPGEKPSQPIEVLLERELAELSAELDKDLRAIETRLPSPKSSPAPRRAPEQRPPAGPASAWSSSYPHAPYLGSARSLSPHKMADGGSPFLGRRDFVYPSSTRDPSASNGGGSPARREEKKRKAARLKFDFQAQSPKELTLQKGDIVYIHKEVDKNWLEGEHHGRLGIFPANYVEVLPADEIPKPIKPPTYQVLEYGEAVAQYTFKGDLEVELSFRKGEHICLIRKVNENWYEGRITGTGRQGIFPASYVQVSREPRLRLCDDGPQLPTSPRLTAAARSARHPSSPSALRSPADPIDLGGQTSPRRTGFSFPTQEPRPQTQNLGTPGPALSHSRGPSHPLDLGTSSPNTSQIHWTPYRAMYQYRPQNEDELELREGDRVDVMQQCDDGWFVGVSRRTQKFGTFPGNYVAPV	A
SPG21 (protein, UniProt Q9NZD8 1-308, looked up) Maspardin: MGEIKVSPDYNWFRGTVPLKKIIVDDDDSKIWSLYDAGPRSIRCPLIFLPPVSGTADVFFRQILALTGWGYRVIALQYPVYWDHLEFCDGFRKLLDHLQLDKVHLFGASLGGFLAQKFAEYTHKSPRVHSLILCNSFSDTSIFNQTWTANSFWLMPAFMLKKIVLGNFSSGPVDPMMADAIDFMVDRLESLGQSELASRLTLNCQNSYVEPHKIRDIPVTIMDVFDQSALSTEAKEEMYKLYPNARRAHLKTGGNFPYLCRSAEVNLYVQIHLLQFHGTKYAAIDPSMVSAEELEVQKGSLGISQEEQ	A
UBAC1 (protein, UniProt Q9BSL1 1-405, looked up) Ubiquitin-associated …: MFVQEEKIFAGKVLRLHICASDGAEWLEEATEDTSVEKLKERCLKHCAHGSLEDPKSITHHKLIHAASERVLSDARTILEENIQDQDVLLLIKKRAPSPLPKMADVSAEEKKKQDQKAPDKEAILRATANLPSYNMDRAAVQTNMRDFQTELRKILVSLIEVAQKLLALNPDAVELFKKANAMLDEDEDERVDEAALRQLTEMGFPENRATKALQLNHMSVPQAMEWLIEHAEDPTIDTPLPGQAPPEAEGATAAASEAAAGASATDEEARDELTEIFKKIRRKREFRADARAVISLMEMGFDEKEVIDALRVNNNQQNAACEWLLGDRKPSPEELDKGIDPDSPLFQAILDNPVVQLGLTNPKTLLAFEDMLENPLNSTQWMNDPETGPVMLQISRIFQTLNRT	A
RNF123 (protein, UniProt Q5XPI4 2-1314, looked up) E3 ubiquitin-protein ligase …: ASKGAGMSFSRKSYRLTSDAEKSRVTGIVQEKLLNDYLNRIFSSSEHAPPAATSRKPLNFQNLPEHLDQLLQVDNEEEESQGQVEGRLGPSTVVLDHTGGFEGLLLVDDDLLGVIGHSNFGTIRSTTCVYKGKWLYEVLISSQGLMQIGWCTISCRFNQEEGVGDTHNSYAYDGNRVRKWNVTTTNYGKAWAAGDIVSCLIDLDDGTLSFCLNGVSLGTAFENLSRGLGMAYFPAISLSFKESVAFNFGSRPLRYPVAGYRPLQDPPSADLVRAQRLLGCFRAVLSVELDPVEGRLLDKESSKWRLRGQPTVLLTLAHIFHHFAPLLRKVYLVEAVLMSFLLGIVEKGTPTQAQSVVHQVLDLLWLFMEDYEVQDCLKQLMMSLLRLYRFSPIVPDLGLQIHYLRLTIAILRHEKSRKFLLSNVLFDVLRSVVFFYIKSPLRVEEAGLQELIPTTWWPHCSSREGKESTEMKEETAEERLRRRAYERGCQRLRKRIEVVEELQVQILKLLLDNKDDNGGEASRYIFLTKFRKFLQENASGRGNMPMLCPPEYMVCFLHRLISALRYYWDEYKASNPHASFSEEAYIPPQVFYNGKVDYFDLQRLGGLLSHLRKTLKDDLASKANIVIDPLELQSTAMDDLDEDEEPAPAMAQRPMQALAVGGPLPLPRPGWLSSPTLGRANRFLSTAAVSLMTPRRPLSTSEKVKVRTLSVEQRTREDIEGSHWNEGLLLGRPPEEPEQPLTENSLLEVLDGAVMMYNLSVHQQLGKMVGVSDDVNEYAMALRDTEDKLRRCPKRRKDILAELTKSQKVFSEKLDHLSRRLAWVHATVYSQEKMLDIYWLLRVCLRTIEHGDRTGSLFAFMPEFYLSVAINSYSALKNYFGPVHSMEELPGYEETLTRLAAILAKHFADARIVGTDIRDSLMQALASYVCYPHSLRAVERIPEEQRIAMVRNLLAPYEQRPWAQTNWILVRLWRGCGFGYRYTRLPHLLKTKLEDANLPSLQKPCPSTLLQQHMADLLQQGPDVAPSFLNSVLNQLNWAFSEFIGMIQEIQQAAERLERNFVDSRQLKVCATCFDLSVSLLRVLEMTITLVPEIFLDWTRPTSEMLLRRLAQLLNQVLNRVTAERNLFDRVVTLRLPGLESVDHYPILVAVTGILVQLLVRGPASEREQATSVLLADPCFQLRSICYLLGQPEPPAPGTALPAPDRKRFSLQSYADYISADELAQVEQMLAHLTSASAQAAAASLPTSEEDLCPICYAHPISAVFQPCGHKSCKACINQHLMNNKDCFFCKTTIVSVEDWEKGANTSTTSSAA	A
SIRT1 (protein, UniProt Q96EB6 2-747, looked up) NAD-dependent protein …: ADEAALALQPGGSPSAAGADREAASSPAGEPLRKRPRRDGPGLERSPGEPGGAAPEREVPAAARGCPGAAAAALWREAEAEAAAAGGEQEAQATAAAGEGDNGPGLQGPSREPPLADNLYDEDDDDEGEEEEEAAAAAIGYRDNLLFGDEIITNGFHSCESDEEDRASHASSSDWTPRPRIGPYTFVQQHLMIGTDPRTILKDLLPETIPPPELDDMTLWQIVINILSEPPKRKKRKDINTIEDAVKLLQECKKIIVLTGAGVSVSCGIPDFRSRDGIYARLAVDFPDLPDPQAMFDIEYFRKDPRPFFKFAKEIYPGQFQPSLCHKFIALSDKEGKLLRNYTQNIDTLEQVAGIQRIIQCHGSFATASCLICKYKVDCEAVRGDIFNQVVPRCPRCPADEPLAIMKPEIVFFGENLPEQFHRAMKYDKDEVDLLIVIGSSLKVRPVALIPSSIPHEVPQILINREPLPHLHFDVELLGDCDVIINELCHRLGGEYAKLCCNPVKLSEITEKPPRTQKELAYLSELPPTPLHVSEDSSSPERTSPPDSSVIVTLLDQAAKSNDDLDVSESKGCMEEKPQEVQTSRNVESIAEQMENPDLKNVGSSTGEKNERTSVAGTVRKCWPNRVAKEQISRRLDGNQYLFLPPNRYIFHGAEVYSDSEDDVLSSSSCGSNSDSGTCQSPSLEEPMEDESEIEEFYNGLEDEPDVPERAGGAGFGTDGDDQEAINEAISVKQEVTDMNYPSNKS	D
